Where a chain is given by its changes, count along the chain named.
B1: N-loop (designed binder)
chain: MSSQIRQNYHQDSEAAVNRQINLYLQASYTYLSLGFYFDRDDVALEGVSHFFRELAEEKREGYERLLKMQNQRGGRIFLQDIKKPDCDEWGKTPDAMKAAMALEKKLNQALLDLHKLATDKNDPHLCDFLETHFLDEEVKLIKKMGDHLTNLHRLGGPEAGLGEYLFERLTLKHD
notes: expressed in E. coli from PET22b; Purity of target protein 77.1%; also called N-loop modified protein
B2: N terminal (designed binder)
chain: B1 chain with D86A, C87E
B3: NC-loop (designed binder)
chain: MSSQIRQNYHQDSEAAVNRQINLYLQASYTYLSLGFYFDRDDVALEGVSHFFRELAEEKREGYERLLKMQNQRGGRIFLQDIKKPDCDEWESGLNAMECALHLEKKLNQALLDLHKLATDKNDPHLCDFLETHFLDEEVKLIKKMGDHLTNLRKMGAPEAGLGEYLFERLTLKHD
B4: NC fusion (designed binder)
chain: B3 chain with D86A, C87E
B5: C-loop (designed binder)
chain: MSSQIRQNYSTDVEAAVNSLVNLYLQASYTYLSLGFYFDRDDVALEGVSHFFRELAEEKREGYERLLKMQNQRGGRALFQDIKKPDCDEWESGLNAMECALHLEKKLNQALLDLHALGSARTDPHLCDFLETHFLDEEVKLIKKMGDHLTNLRKMGAPEAGLGEYLFERLTLKHD
B6: C terminal (designed binder)
chain: B5 chain with D86A, C87E
B7: chimeric human H-ferritin (designed binder)
chain: MTSQVRQNYHQDSEAAINRQINLELYASYVYLSMSYYFDRDDVALEGVSHFFRELAEEKREGYERLLKMQNQRGGRIFLQDIKKPDCDDWESGLNAMECALHLEKNVNQSLLELHKLATDKNDPHLCDFLETHFLDEEVKLIKKMGDHVTNLRKMGAPESGLAEYLFERLTLKHD
notes: FITC-labelled in the cell assays; also called chimeric human H-ferritins

target: T1, TfR1 (human, Sino Biological Inc.) (human, UniProt P02786 89-760); experiment: ELISA value converted by purity of target protein
T1 construct: Bought protein; the catalogue number printed for it (11020-MM02) is the same as that printed for the anti-TfR1 primary antibody, so the construct cannot be told; also called TfFR1; receptor TfR1
T1 sequence (P02786 89-760 limits assumed): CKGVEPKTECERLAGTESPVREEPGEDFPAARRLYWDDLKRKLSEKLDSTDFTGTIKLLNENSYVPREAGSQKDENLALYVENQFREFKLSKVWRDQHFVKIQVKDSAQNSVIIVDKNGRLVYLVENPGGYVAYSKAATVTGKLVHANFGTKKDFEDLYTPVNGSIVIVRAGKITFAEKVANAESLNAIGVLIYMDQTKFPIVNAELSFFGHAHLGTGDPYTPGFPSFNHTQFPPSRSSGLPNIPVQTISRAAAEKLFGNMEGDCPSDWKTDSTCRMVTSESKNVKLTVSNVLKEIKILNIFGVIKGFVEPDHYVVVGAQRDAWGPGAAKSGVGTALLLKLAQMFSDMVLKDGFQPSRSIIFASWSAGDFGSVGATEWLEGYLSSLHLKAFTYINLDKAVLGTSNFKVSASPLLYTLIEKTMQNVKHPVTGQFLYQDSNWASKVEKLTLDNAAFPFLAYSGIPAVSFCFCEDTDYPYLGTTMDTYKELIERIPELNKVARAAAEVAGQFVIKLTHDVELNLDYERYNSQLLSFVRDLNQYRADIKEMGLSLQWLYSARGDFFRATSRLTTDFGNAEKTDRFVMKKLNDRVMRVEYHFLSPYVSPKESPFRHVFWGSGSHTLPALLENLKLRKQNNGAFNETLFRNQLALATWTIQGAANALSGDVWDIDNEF

Converted ELISA value | Binder
1.52 | B1
1.3 | B2
2.02 | B3
1.14 | B4
0.71 | B5
0.17 | B6

target: T2, human Transferrin Receptor 1 (TfR1) on cells (human, UniProt P02786 1-760); experiment: flow cytometry on hCMEC/D3 cells according to Example 1b
T2 construct: whole, on cells; Endogenous receptor on human cell lines; also called receptor TfR1 on hCMEC/D3 cells; TfR1 on U87-MG cells
T2 sequence (P02786 whole entry): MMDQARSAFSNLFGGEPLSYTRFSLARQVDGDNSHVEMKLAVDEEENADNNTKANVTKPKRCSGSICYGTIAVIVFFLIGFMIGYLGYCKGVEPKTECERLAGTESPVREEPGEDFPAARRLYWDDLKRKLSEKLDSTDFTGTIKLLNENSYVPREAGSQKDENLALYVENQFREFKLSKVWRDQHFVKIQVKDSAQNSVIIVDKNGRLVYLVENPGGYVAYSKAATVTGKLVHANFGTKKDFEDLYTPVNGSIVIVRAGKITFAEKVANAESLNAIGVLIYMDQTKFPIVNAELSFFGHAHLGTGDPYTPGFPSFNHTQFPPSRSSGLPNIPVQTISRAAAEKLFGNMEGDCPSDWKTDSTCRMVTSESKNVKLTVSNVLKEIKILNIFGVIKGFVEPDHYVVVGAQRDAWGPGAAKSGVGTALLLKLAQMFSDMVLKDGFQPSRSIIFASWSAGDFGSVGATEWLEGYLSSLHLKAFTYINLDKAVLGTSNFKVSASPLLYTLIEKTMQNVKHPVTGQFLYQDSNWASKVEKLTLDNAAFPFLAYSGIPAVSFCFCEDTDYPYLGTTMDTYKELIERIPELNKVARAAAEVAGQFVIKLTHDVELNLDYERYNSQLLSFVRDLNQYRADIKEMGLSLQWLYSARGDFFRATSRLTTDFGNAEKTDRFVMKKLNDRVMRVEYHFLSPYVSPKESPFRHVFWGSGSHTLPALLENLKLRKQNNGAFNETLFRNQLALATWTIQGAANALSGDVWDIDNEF

binding result | Binder
binds | B7

target: T1, TfR1 (human, Sino Biological Inc.); experiment: ELISA, protein coated at 20 ug/mL, 2 ug/mL TfR1, anti-TfR1 detection

ELISA value [OD630] | Binder
1.17 | B1
0.88 | B2
1.23 | B3
1.03 | B4
0.31 | B5
0.1 | B6

Reference: patent publication US20200138960A1 (KUNSHAN XINYUNDA BIOTECH, published 2020)
